Values joined by “and” are separate entries in the source; they are usually repeats but may differ in a detail not shown here. Equal values may be shown once.
Legend:
[1] = target: T1, CD163 on peripheral blood monocytes (Homo sapiens, UniProt Q86VB7); test: Quantitative flow cytometry of monocyte surface CD163 expression using different anti-CD163 mAb clones; assay type: cell-based
T1 construct: Freshly drawn peripheral whole blood samples or PBMC; endogenous in cells; host or cells: human peripheral blood monocytes, blood dendritic cells, monocyte-derived macrophages (healthy donors, buffy coats)
Experimental: EDTA, citrate, and heparin stabilized peripheral blood samples were obtained by standard venipuncture from healthy donors in Venoject® vacutainers (Terumo Europe NV, Leuven, Belgium). Peripheral blood mononuclear cells (PBMC) were isolated from leukocyte-rich buffy coats by gradient separation centrifugation using Accuspin System Histopaque®—1077 (Sigma-Aldrich Denmark A/S, Broendby, Denmark). Buffy coats were prepared from units of whole blood (approximately 472 ml) anti-coagulated with CPD-A (Baxter, Munich, Germany) donated by healthy volunteers. Approval for the study was obtained from the regional ethical committee (j.nr. 20040068).
Freshly drawn peripheral whole blood samples or PBMC (approx. 3×10^6 cells) were stained with isotype-matched control antibody or a relevant antibody for one hour at 4° C. in the dark. When staining whole blood, erythrocytes were lysed for 15 min with 4° C. cold solution of ammonium chloride. When indirect immunofluoresence staining was required, cells were initially incubated with unconjugated primary CD163 antibody for one hour at 4° C., washed three times with D-PBS, pH 7.4, followed by incubation with goat anti-mouse-conjugated Alexa-Fluor® 488 (1:200 dilution; Molecular Probes, Invitrogen, Carlsbad, Calif., USA) for one hour at 4° C. in the dark. The stained cells were washed twice three D-PBS, pH 7.4, re-suspended in 400 μl FACSflow (Becton Dickinson, San Jose, Calif., USA), and kept on ice until analysis. All samples were analyzed using a FACSCalibur flow cytometer and compensated for spectral overlap using FlowJo for Macintosh software version 8.3 (TreeStar, San Carlos, Calif.). For CD163 density quantitation, flow cytometric estimation of antibodies bound/cell (ABCs) was performed using Quantibrite PE beads (Becton Dickinson, San Jose, Calif., USA) as recommended by the manufacturer. After the cells were stained, as detailed, a set of 4 pre-calibrated fluorescently labeled beads was used for standardization before the samples were acquired. The Quantibrite PE beads were run at the same instrument settings as the assay, and the linear regression obtained using the Quantibrite PE beads was used to convert the FL2 linear fluorescence staining of cell population into the number of (CD163) PE molecules bound per cell (ABC).

[2] = test system: non-transfected Flp-In CHO cells; test: Cellular binding and uptake of 125I-labeled anti-CD163, control cells; assay type: cell-based, Chinese hamster; details: 125I-labelled mAb
From the text: Endocytosis of ^125I-labeled anti-CD163 was investigated in CD163 transfected Flp-In Chinese hamster ovary (CHO) cells and mock-transfected Flp-In as described (Madsen, M., Moller, H. J., Nielsen, M. J., Jacobsen, C., Graversen, J. H., van den Berg, T. and Moestrup, S. K. (2004) Molecular characterization of the haptoglobin.hemoglobin receptor CD163. Ligand binding properties of the scavenger receptor cysteine-rich domain region. J. Biol. Chem., 279, 51561-51567.)

[3] = target: T2, CHO cells expressing CD163 (Homo sapiens, UniProt Q86VB7); test: CD163 antibody binding and uptake in CHO cells expressing CD163 (confocal microscopy); assay type: cell-based; details: 0 or 30 minutes, FIG. 7
T2 construct: Stably transfected Chinese hamster ovary (CHO) cells expressing the full-length human CD163; expressed in transfected cells
Experimental: Monocytes were isolated from PBMC by negative selection using magnetic beads from Dynal (Dynabeads® MyPure™ Monocyte Kit 2; Invitrogen A/S, Taastrup, Denmark) according to instructions provided by the manufacturer. Monocyte preparations were more than 95% (CD14^+) pure determined by flow cytometry. The isolated cells were washed twice with phosphate-buffered saline. Monocyte-derived macrophages (MDMs) were prepared by cell culture of monocytes (approximately 1×10^7 cells) for 4 days in 5% CO2 and 37° C. in RPMI 1640 media (RPMI 1640+25 mM HEPES+I-glutamine) (Invitrogen Corporation, Carlsbad, Calif., USA) with 20% FCS containing 100 ng/ml of M-CSF. MDMs were then detached from the flask by incubation with cell dissociation buffer (Invitrogen A/S, Taastrup, Denmark) for 30 minutes at 4 °C, then flushed, and scraped. […]
MDMs or CHO cells were washed with 4° C. cold D-PBS, pH 7.4, containing 1% BSA in Lab-Tek™ Chamber Slides (Thermo Fisher Scientific, Roskilde, Denmark). […] Fluorescence was visualized using a Zeiss Axiovert 200M microscope (Carl Zeiss GmbH, Jena, Germany) with an ×100 oil-immersion objective. […] Alternatively, immunostained cells were analyzed by confocal immunofluorescence microscopy using a Zeiss LSM-510 confocal microscope (Carl Zeiss GmbH, Jena, Germany). […]

[4] = PBMC isolated by density gradient centrifugation
[5] = Table 2, second column pair, head prints CITRATE
[6] = anticoagulant CITRATE, whole blood (Table 1, FIG. 2-3)
[7] = anticoagulant EDTA, whole blood (Table 1, FIG. 2-3)
[8] = anticoagulant HEPARIN, whole blood (Table 1, FIG. 2-3)
[9] = freshly drawn EDTA stabilized whole blood, FIG. 1

T1 sequence (Q86VB7 42-1156): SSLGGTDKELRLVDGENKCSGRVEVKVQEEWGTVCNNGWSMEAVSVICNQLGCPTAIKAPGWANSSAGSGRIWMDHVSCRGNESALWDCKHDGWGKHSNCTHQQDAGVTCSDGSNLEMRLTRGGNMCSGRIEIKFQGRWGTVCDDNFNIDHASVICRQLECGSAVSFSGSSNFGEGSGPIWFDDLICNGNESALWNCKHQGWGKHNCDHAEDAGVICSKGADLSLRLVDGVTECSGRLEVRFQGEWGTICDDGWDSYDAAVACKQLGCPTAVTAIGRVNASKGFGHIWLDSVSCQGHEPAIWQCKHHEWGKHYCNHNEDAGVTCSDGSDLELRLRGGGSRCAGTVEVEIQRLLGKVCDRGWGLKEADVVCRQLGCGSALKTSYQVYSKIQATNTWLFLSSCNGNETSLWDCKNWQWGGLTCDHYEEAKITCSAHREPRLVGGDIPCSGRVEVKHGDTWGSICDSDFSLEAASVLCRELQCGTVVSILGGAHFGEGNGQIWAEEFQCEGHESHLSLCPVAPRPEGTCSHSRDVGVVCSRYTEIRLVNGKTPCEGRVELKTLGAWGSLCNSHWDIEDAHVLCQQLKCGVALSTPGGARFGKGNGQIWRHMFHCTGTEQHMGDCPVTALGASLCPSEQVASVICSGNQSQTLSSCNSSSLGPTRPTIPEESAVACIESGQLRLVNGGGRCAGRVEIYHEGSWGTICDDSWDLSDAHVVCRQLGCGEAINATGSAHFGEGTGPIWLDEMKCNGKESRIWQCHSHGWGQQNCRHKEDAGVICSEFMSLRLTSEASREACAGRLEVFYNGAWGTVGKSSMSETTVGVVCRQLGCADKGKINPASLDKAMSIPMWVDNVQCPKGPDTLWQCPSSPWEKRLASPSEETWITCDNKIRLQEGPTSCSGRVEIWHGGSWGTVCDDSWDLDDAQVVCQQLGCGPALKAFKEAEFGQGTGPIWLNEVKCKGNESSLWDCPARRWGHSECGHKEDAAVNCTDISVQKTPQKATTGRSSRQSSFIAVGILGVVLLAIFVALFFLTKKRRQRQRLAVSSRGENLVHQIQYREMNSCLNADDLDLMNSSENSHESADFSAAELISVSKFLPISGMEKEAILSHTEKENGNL
T2 sequence (Q86VB7 42-1156): as above

B1: MAC2-158: anti-human CD163 murine mAb, binds SRCR domain 1, IQ Products; VH SEQ ID NO: 1, VL SEQ ID NO: 2 (antibody, V domains shown)
VH: DVQLQESGPGLVKPSQSLSLTCTVTGYSITSDYAWNWIRQFPGNKLEWMGYITYSGITNYNPSLKSQISITRDTSKNQFFLQLNSVTTEDTATYYCVSGTYYFDYWGQGTTLTVSS
VL: SVVMTQTPKSLLISIGDRVTITCKASQSVSSDVAWFQQKPGQSPKPLIYYASNRYTGVPDRFTGSGYGTDFTFTISSVQAEDLAVYFCGQDYTSPRTFGGGTKLEIKRA
modifications: Mac2-158 VH; Mac2-158 VL
density of CD163 receptors per monocyte [1, 4]: 11,417
fraction of CD14+ monocytes stained for CD163 [1, 4]: 81.10%
% CD163+ monocytes ([1]; Table 2, first column pair, head prints EDTA): 84.48%
% CD163+ monocytes [1, 5]: 87.23%
CD163 density on monocytes [1, 5]: 17700 receptors/monocyte
% CD163+ monocytes ([1]; Table 2, third column pair, head prints HEPARIN): 83.97%
% CD163+ monocytes [1, 6]: 83.97% and 81.97%
CD163 density on monocytes [1, 6]: 17.726
% CD163+ monocytes [1, 7]: 87.23% and 82.23%
CD163 density on monocytes [1, 7]: 17.725
% CD163+ monocytes [1, 8]: 84.43%
CD163 density monocytes [1, 8]: 28.029
density of CD163 receptors per monocyte [1, 9]: 17,725
fraction of peripheral blood monocytes (CD14+) recognized [1, 9]: 84.06%
proportion of circulating CD163 expressing monocytes identified ([1]; summary statement): > 80%
percentage of cell-associated radioactivity reached [2]: 1.37%
binding and uptake [3]: best binding and uptake

— US20170119790A1, “Agents, Uses and Methods” (CYTOGUIDE A/S, priority 2009, published 2017)
